From US20250250357A1 (NANJING ZAIMING PHARMACEUTICAL, published 2025)

How the values were obtained:
[1] = target: T1, human MSLN-R2-his protein (human, UniProt Q13421 391-486); test: ELISA, coated MSLN-R2;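 note: chimeric antibodies bound to blocked coated plates for 2 h at 37 °C, TMB colour development stopped with HCl, with a negative control antibody for comparison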
T1 construct: Region 2 of human MSLN, His-tagged; also called human MSLN-R2 protein; hMSLN-R2-his; not shown: His tag

[2] = target: T2, human MSLN-R3-his protein (human, UniProt Q13421 487-598); test: ELISA, coated MSLN-R3
T2 construct: Region 3 of human MSLN, His-tagged; also called human MSLN-R3 protein; hMSLN-R3-his; not shown: His tag

[3] = target: T3, human MSLN-R3-3 polypeptide (human); test: ELISA, coated MSLN-R3-3;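 note: chimeric antibodies in serial dilution bound to plate-coated antigen for 2 h at 37 °C, with a negative control antibody alongside, and TMB colour development stopped with HCl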
T3 construct: also called human MSLN-R3-3 protein; hMSLN-R3-3

[4] = target: T4, human MSLN protein endogenously expressed on OVCAR3 tumor cells (human, UniProt Q13421 296-598); test: FACS on OVCAR3 cells;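 note: flow cytometry binding of test antibodies to cells, 2 h incubation on ice, readout as cell mean fluorescence intensity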
T4 construct: whole, on cells; Endogenous target on OVCAR3 cells; kept apart from the recombinant full-length construct; also called mesothelin

[5] = target: T5, human MSLN-R3 protein (Met487-Ser606 of NCBI AAH09272.1) expressed on HEK293T-hMSLN-R3 cells (human, UniProt Q13421 487-606); test: FACS on HEK293T-hMSLN-R3 cells;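 note: flow cytometry binding of test chimeric antibodies to cells after 2 h incubation on ice, with values derived from the mean fluorescence intensity of the cells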
T5 construct: also called Region3

[6] = target: T6, monkey MSLN full-length protein (NCBI: XP_028696439.1) expressed on HEK293T-monkey MSLN cells (monkey); test: FACS on HEK293T-monkey MSLN cells;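 note: flow cytometry binding of chimeric antibodies to the cells, with a 2 h incubation on ice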
T6 construct: Whole encoded precursor
T6 chain: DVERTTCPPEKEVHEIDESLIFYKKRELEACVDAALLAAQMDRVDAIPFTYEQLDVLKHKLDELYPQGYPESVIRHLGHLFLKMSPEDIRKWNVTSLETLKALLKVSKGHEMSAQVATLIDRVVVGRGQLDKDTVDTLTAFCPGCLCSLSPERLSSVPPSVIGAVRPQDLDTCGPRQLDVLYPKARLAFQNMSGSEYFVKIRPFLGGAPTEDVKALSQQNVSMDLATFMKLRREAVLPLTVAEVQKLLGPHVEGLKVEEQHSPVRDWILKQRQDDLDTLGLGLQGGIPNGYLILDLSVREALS

[7] = target: T7, human MSLN-R3 protein expressed on HEK293T cells (HEK293T-hMSLN-R3) (human, UniProt Q13421 487-606); test: FACS on HEK293T-hMSLN-R3 cells;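 note: chimeric antibodies incubated with cells on ice for 2 h, binding read by flow cytometry as mean fluorescence intensity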
T7 construct: C-terminal limit uncertain
T7 sequence (Q13421 495-614): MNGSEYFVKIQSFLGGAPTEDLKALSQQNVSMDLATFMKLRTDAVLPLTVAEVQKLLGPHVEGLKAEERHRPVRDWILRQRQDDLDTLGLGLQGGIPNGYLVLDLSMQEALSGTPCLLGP

T4 sequence (Q13421 other isoform, or with tags, fused parts or gaps): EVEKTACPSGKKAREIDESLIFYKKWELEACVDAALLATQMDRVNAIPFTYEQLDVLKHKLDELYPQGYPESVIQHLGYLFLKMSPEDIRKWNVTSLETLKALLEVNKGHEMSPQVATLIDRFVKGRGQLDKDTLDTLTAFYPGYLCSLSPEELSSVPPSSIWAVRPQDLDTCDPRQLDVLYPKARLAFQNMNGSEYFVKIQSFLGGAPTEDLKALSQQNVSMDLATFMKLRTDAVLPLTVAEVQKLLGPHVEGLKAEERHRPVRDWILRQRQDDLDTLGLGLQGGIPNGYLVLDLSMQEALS
T5 sequence (Q13421 495-614): as the sequence (Q13421 495-614) above
T1 sequence (Q13421 other isoform, or with tags, fused parts or gaps): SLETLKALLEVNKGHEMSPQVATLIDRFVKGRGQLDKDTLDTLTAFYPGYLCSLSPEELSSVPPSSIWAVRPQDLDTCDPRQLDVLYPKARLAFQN
T2 sequence (Q13421 495-606): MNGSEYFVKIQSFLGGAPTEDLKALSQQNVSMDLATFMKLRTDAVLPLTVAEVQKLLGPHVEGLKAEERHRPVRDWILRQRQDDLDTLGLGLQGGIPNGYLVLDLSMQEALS

B1: S009-F1.25.10 (antibody, human IgG1, kappa, V domains shown)
VH: EVQLQQSGPELVKPGASLKISCKASGYSFTDYTMNWVKQSHGKNLEWIGLFNPYNGGISYNQKFKGKATLTVDKSSNTAYMELLSLTSDDSAVYFCARDGRGGFYAMDYWGQGTSVTVSS
VL: DIQMTQTTSSLSASLGDRVTISCRASQDISIYLNWYQQKPDGPVKLLIYYTSRLHSGVPSRFSGSGSGTDFSLTISNLEQEDIATYFCQQGYTLPPWTFGGGTKLEIKR
notes: Human-murine chimeric antibody, human IgG1/kappa constant regions
OD450 at 0.0001 nM [1]: 0.04 OD450 | OD450 at 0.001 nM [1]: 0.04 OD450 | OD450 at 0.01 nM [1]: 0.04 OD450 | OD450 at 0.1 nM [1]: 0.04 OD450 | OD450 at 1 nM [1]: 0.04 OD450 | OD450 at 10 nM [1]: 0.05 OD450 | OD450 at 100 nM [1]: 0.05 OD450 | OD450 at none (no antibody) [1]: 0.05 OD450 | OD450 at 0.0001 nM [2]: 0.05 OD450 | OD450 at 0.001 nM [2]: 0.05 OD450 | OD450 at 0.01 nM [2]: 0.09 OD450 | OD450 at 0.1 nM [2]: 0.34 OD450 | OD450 at 1 nM [2]: 1.44 OD450 | OD450 at 10 nM [2]: 2.07 OD450 | OD450 at 100 nM [2]: 2.81 OD450 | OD450 at none (no antibody) [2]: 0.05 OD450 | OD450 at 0.0001 nM [3]: 0.07 OD450 | OD450 at 0.001 nM [3]: 0.13 OD450 | OD450 at 0.01 nM [3]: 0.59 OD450 | OD450 at 0.1 nM [3]: 1.82 OD450 | OD450 at 1 nM [3]: 2.17 OD450 | OD450 at 10 nM [3]: 2.41 OD450 | OD450 at 100 nM [3]: 2.78 OD450 | OD450 at none (no antibody) [3]: 0.07 OD450

B2: S009-F7.2.3 (antibody, human IgG1, kappa, V domains shown)
VH: ELQLVESGGDLVKPGGSLKLSCAASGFTFSSNGMSWLRQTPDKRLEWVATISSGGRYTYYPDSVKGRFTISRDNAKNTLYLQMSSLKSEDTAMYYCARRGIYDYFDCWGQGTTLTVSS
VL: DIQMTQSPASLSISVGETVTITCRASENIHSSLAWYQQKQGKSPQLLVYAATNLADGVPSRFSGSGSGSQYSLKINSLQSEDFGTYYCQHFWGTPWTFGGGTKLDIKR
notes: human-murine chimeric antibody, human IgG1/kappa constant regions
EC50 [4]: 1.74 nM | Maximum mean fluorescence intensity [4]: 22800 | Maximum mean fluorescence intensity [5]: 33 | binding result [5]: no binding

B3: S009-F7.21.16 (antibody, human IgG1, kappa, V domains shown)
VH: QVQLQQPGTELVKPGASVKLSCKASGYTFTTFWMHWVKQRPGQGLEWIGGVNPTNGGTNYNEKFRTKATLTVDKSSTTADMQLSSLTSEDSAVYYCAPHYISSRPGFAYWGQGTLVTVSG
VL: DIVMTQSQKFMSTSGGDRVSVTCKASQNVGTNVAWYQQKPGQSPKALIYSASYRYSGVPDRFTGSGSGTDFILTISNVQSEDLAEYFCQQYNSYPLTFGGGTKLEIKR
notes: as for B2
EC50 [4]: 0.52 nM | Maximum mean fluorescence intensity [4]: 32600 | EC50 [5]: 0.16 nM | Maximum mean fluorescence intensity [5]: 6820 | EC50 [6]: 0.3 nM | Maximum mean fluorescence intensity [6]: 50900

B4: Tab106 (YP218, hIgG1) (antibody, V domains shown)
VH: QQQLEESGGGLVKPEGSLTLTCKASGFDLGFYFYACWVRQAPGKGLEWIACIYTAGSGSTYYASWAKGRFTISKASSTTVTLQMTSLAAADTATYFCARSTANTRSTYYLNLWGPGTLVTVSS
VL: DVVMTQTPASVSEPVGGTVTIKCQASQRISSYLSWYQQKPGQRPKLLIFGASTLASGVPSRFKGSGSGTEYTLTISDLECADAATYYCQSYAYFDSNNWHAFGGGTEVVVRT
notes: control antibody; YP218 VH and VL in human IgG1 CH and CL vectors; also called YP218 human IgG1 antibody
EC50 [7]: 1 nM | Maximum mean fluorescence intensity [7]: 24500

B5: S009-F7.18.10 (antibody, human IgG1, kappa, V domains shown)
VH: QVQLQQSGAELVRPGTSVKVSCKASGYAFTNYLIEWVKQRPGQGLEWIGVINPGSGGTKYNEKFKGKATLTADKSSSTAYMQLSSLTSEDSAVYFCASDYDYDPFAYWGQGTLVTVSA
VL: DIVMTQSHKFMSTSVGDRVSITCKASQDVSTAVAWYQRKPGQSPKLLIYWASTRHTGVPDRFTGSGSGTDYTLTISYMQAEDLALYYCQQHYSTPYTFGGGTKLEIKR
notes: as for B2
EC50 [4]: 3.29 nM | Maximum mean fluorescence intensity [4]: 29900 | Maximum mean fluorescence intensity [5]: 39 | binding result [5]: no binding | EC50 [6]: 0.47 nM | Maximum mean fluorescence intensity [6]: 50600

B6: S009-F7.6.17 (antibody, human IgG1, kappa, V domains shown)
VH: QVQLQQSGAELARPGASVKMSCKASGYTFTTYTMHWVKQRPGQGLEWIGYISPTGDFTKYNQKFKDKATLTTDKSSNTAFMQLSSLTSEDSAVYYCARWNGTVWFAYWGQGTLVTVSA
VL: DIVMTQSQKFMSTSVGDRVTVTCKASQALGTNVAWYQQKPGQSPKVLIYSASYRYSGVPYRFAGGGSGTDFTLTITNVQSEDLAEYFCQQYNNYPLTFGAGTKLELKR
notes: as for B2
EC50 [4]: 0.99 nM | Maximum mean fluorescence intensity [4]: 31800 | EC50 [5]: 0.31 nM | Maximum mean fluorescence intensity [5]: 6420 | EC50 [6]: 0.7 nM | Maximum mean fluorescence intensity [6]: 56100

B7: S009-F7.23.19 (antibody, human IgG1, kappa, V domains shown)
VH: EVKLVESGGGLVQPGGSLSLSCAASGFTFTDYYMSWVRQPPGKALEWLGFIRSKANAYTTEYSASVKGRFTISRDNSQSILYLQMNDLRAEDSATYYCARYYYYGSGYVWYFDVWGTGTTVTVSS
VL: DIVMTQSQKFMSTSVGDRVSVTCKASQSVGTNVAWYQQKPGQFPKALIYSASYRYSGVPDRFTGSGSGTDFTLTIINVQSEDLAEYFCQQYNSYPLTFGAGTKLELKR
notes: as for B2
EC50 [4]: 0.15 nM | Maximum mean fluorescence intensity [4]: 29300 | EC50 [5]: 0.05 nM | Maximum mean fluorescence intensity [5]: 6570 | EC50 [6]: 0.13 nM | Maximum mean fluorescence intensity [6]: 54300

B8: S009-F1.35.24 (antibody, human IgG1, kappa, V domains shown)
VH: EVQLQQSEPELVKPGASVRISCKASGYSFTDYYMHWVKQSPENRLEWIGEINPSTGGTSYNPKFKDKATLTVDKSSSTAYMQLKSLTSEESAVYYCTRYHYYGSSSYVMDYWGQGTSVTVSS
VL: QIVLTQSPAILSASPGERVTMTCSASSSVYHMHWFQQKSGTSPKRWVYDTSKLASGVPARFSGSGSGTSYSLTISSMEAEDAATYYCQHWRTNPLTFGAGTKLELKR
notes: as for B1
OD450 at 0.0001 nM [1]: 0.04 OD450 | OD450 at 0.001 nM [1]: 0.05 OD450 | OD450 at 0.01 nM [1]: 0.05 OD450 | OD450 at 0.1 nM [1]: 0.04 OD450 | OD450 at 1 nM [1]: 0.05 OD450 | OD450 at 10 nM [1]: 0.05 OD450 | OD450 at 100 nM [1]: 0.06 OD450 | OD450 at none (no antibody) [1]: 0.05 OD450 | OD450 at 0.0001 nM [2]: 0.05 OD450 | OD450 at 0.001 nM [2]: 0.05 OD450 | OD450 at 0.01 nM [2]: 0.05 OD450 | OD450 at 0.1 nM [2]: 0.05 OD450 | OD450 at 1 nM [2]: 0.05 OD450 | OD450 at 10 nM [2]: 0.05 OD450 | OD450 at 100 nM [2]: 0.06 OD450 | OD450 at none (no antibody) [2]: 0.05 OD450 | OD450 at 0.0001 nM [3]: 0.07 OD450 | OD450 at 0.001 nM [3]: 0.07 OD450 | OD450 at 0.01 nM [3]: 0.07 OD450 | OD450 at 0.1 nM [3]: 0.08 OD450 | OD450 at 1 nM [3]: 0.07 OD450 | OD450 at 10 nM [3]: 0.07 OD450 | OD450 at 100 nM [3]: 0.15 OD450 | OD450 at none (no antibody) [3]: 0.07 OD450

B9: S009-F7.11.11 (antibody, human IgG1, kappa, V domains shown)
VH: EVQLQQSGPELVKPGASVKIPCKASGYTITDYNMDWVKQSRGKSLEWIGDVFPYNGDSIYNQKFEGRATLTVDKYSSTAYMELRGLTSEDTAVYFCARRKTGTGYFDVWGTGTTVTVSS
VL: QLVLTQSPAIMSASPGEKVTLTCSASSSVSSTYLSWYLQKPGSSPKLWIYSTSNLASGVPARFSGSGSGTSYSLTISSMEAEDAASYFCHQWSSYPYTFGGGTKLEIKR
notes: as for B2
EC50 [4]: 0.86 nM | Maximum mean fluorescence intensity [4]: 31800 | EC50 [5]: 0.28 nM | Maximum mean fluorescence intensity [5]: 6260 | EC50 [6]: 0.41 nM | Maximum mean fluorescence intensity [6]: 49500

B10: S009-F7.12.13 (antibody, human IgG1, kappa, V domains shown)
VH: EVQLQQSGPELVKPGASVKIPCKASGYTFTDYNMDWVKQSHGKGLEWIGDINPNTDDTIYNQKFNGKATLTVDKSSSTAYMELRSLTSEDTAVYYCSRRLIGTGYFDVWGTGTTVTVSS
VL: QIVLTQSPAIMSASPGEKVTLTCSASSSVISTYLCWYRQKPGSSPELWIYSTSNLASGVPARFSGSGSGTSYSLTISSMEAEDAASYFCHQWSNYPYTFGGGTKLGMKR
notes: as for B2
EC50 [4]: 0.32 nM | Maximum mean fluorescence intensity [4]: 21400 | EC50 [5]: 0.12 nM | Maximum mean fluorescence intensity [5]: 6610 | EC50 [6]: 6.34 nM | Maximum mean fluorescence intensity [6]: 7630
